Like-named read-outs stand apart in the source and are kept apart here.

In experiment [1] the target is recombinant human APRIL (human) (UniProt O75888). As to the kind of experiment: cell-based or functional assay.
Experiment [2] concerns the target recombinant human BAFF (human) (UniProt Q9Y275). As to the kind of experiment: cell-based or functional assay.
For experiment [3] the target is unchanged.
For experiment [4], the target named is recombinant human APRIL (human) (UniProt O75888). As to the kind of experiment: cell-based or functional assay. The source holds these as a separate data set.
Experiment [5] deals with recombinant human BAFF (human) (UniProt Q9Y275). As to the kind of experiment: cell-based or functional assay. This is another data set of the same source.
In another experiment the target is BAFF 60-mer (human) (UniProt Q9Y275). As to the kind of experiment: cell-based or functional assay.
For experiment [6], the target named is APRIL + BAFF in combination (human). As to the kind of experiment: cell-based or functional assay.
The target of experiment [7] is recombinant mouse APRIL (mouse) (UniProt Q9D777). As to the kind of experiment: cell-based or functional assay.
recombinant mouse APRIL (mouse), sequence (Q9D777 96-241 limits assumed): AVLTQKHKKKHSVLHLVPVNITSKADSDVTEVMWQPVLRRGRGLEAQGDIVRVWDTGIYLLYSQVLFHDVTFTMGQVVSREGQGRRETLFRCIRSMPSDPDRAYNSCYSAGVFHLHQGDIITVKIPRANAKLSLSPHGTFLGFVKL
The target in experiment [8] is recombinant mouse BAFF (mouse) (UniProt Q9WU72). As to the kind of experiment: cell-based or functional assay.
recombinant mouse BAFF (mouse), sequence (Q9WU72 127-309 limits assumed): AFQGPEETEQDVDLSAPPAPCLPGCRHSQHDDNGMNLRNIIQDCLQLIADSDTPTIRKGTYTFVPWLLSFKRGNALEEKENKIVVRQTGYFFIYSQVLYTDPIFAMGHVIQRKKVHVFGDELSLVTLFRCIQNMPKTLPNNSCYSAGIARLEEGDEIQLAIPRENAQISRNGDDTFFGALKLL
In experiment [9] the target is recombinant human BAFF (human) (UniProt Q9Y275). This is another data set of the same source.

TACI WT 13 GSG4S (74) Fc 73 (G4S)4 (84) TACI WT 13 (Fc fusion), sequence (chain): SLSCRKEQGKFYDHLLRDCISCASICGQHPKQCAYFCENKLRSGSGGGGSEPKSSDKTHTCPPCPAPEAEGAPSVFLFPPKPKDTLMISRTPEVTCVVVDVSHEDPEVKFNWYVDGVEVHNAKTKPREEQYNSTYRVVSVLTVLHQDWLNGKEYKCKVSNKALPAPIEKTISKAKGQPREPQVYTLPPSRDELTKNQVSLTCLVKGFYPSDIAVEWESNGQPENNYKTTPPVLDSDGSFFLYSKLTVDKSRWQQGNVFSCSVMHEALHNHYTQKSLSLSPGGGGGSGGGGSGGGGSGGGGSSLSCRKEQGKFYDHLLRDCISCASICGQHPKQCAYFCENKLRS
29 TACI CRD2-Fc (Fc fusion), sequence (chain): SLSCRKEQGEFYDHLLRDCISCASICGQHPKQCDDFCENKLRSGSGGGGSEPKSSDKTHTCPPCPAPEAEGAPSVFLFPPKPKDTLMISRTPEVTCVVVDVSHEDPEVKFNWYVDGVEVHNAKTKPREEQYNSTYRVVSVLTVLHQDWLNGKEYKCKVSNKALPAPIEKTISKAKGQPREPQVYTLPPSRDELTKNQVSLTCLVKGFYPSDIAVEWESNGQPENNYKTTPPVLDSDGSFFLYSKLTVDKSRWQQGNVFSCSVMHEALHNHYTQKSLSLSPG
TACI WT 13 (G4S)4 (84) TACI WT 13 GSG4S (74) Fc 73 (Fc fusion), sequence (chain): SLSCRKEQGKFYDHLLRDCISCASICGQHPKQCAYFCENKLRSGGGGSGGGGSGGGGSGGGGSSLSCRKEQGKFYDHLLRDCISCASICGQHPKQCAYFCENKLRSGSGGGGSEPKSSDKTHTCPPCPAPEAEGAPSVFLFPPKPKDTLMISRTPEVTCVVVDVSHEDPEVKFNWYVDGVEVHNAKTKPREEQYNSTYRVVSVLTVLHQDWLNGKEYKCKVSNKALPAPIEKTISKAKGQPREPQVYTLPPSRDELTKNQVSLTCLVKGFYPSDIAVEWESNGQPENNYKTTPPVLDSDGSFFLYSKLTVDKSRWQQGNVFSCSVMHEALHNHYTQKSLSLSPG
27 TACI CRD2-Fc (Fc fusion), sequence (chain): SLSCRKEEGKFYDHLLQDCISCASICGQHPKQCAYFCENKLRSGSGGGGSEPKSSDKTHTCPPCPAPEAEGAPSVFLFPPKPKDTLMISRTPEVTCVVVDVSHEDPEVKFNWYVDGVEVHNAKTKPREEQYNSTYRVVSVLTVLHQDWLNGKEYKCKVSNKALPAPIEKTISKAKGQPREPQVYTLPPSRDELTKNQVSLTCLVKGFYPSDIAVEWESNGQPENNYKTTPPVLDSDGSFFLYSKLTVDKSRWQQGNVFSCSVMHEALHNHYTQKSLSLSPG
TACI 30-110-Fc (Fc fusion), sequence (chain): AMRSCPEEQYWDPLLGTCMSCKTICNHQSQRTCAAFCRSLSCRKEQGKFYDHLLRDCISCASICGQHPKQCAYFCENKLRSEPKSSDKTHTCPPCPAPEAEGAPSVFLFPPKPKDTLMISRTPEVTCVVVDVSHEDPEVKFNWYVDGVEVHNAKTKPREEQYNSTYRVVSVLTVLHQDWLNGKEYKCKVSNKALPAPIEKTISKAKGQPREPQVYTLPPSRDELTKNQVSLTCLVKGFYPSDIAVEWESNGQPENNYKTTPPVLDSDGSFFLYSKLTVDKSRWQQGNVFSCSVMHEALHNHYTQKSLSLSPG
Atacicept (WT TACI-Fc with the atacicept sequence) (Fc fusion), sequence (chain): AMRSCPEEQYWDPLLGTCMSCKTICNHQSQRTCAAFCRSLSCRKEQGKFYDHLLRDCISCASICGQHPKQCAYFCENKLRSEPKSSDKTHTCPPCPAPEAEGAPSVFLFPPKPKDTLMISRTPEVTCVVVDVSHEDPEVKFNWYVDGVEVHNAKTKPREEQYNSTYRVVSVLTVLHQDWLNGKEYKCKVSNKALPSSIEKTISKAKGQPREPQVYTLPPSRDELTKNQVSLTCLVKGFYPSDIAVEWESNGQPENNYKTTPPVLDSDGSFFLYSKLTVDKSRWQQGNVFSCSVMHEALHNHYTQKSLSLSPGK
TACI 13-118-Fc (Fc fusion), sequence (chain): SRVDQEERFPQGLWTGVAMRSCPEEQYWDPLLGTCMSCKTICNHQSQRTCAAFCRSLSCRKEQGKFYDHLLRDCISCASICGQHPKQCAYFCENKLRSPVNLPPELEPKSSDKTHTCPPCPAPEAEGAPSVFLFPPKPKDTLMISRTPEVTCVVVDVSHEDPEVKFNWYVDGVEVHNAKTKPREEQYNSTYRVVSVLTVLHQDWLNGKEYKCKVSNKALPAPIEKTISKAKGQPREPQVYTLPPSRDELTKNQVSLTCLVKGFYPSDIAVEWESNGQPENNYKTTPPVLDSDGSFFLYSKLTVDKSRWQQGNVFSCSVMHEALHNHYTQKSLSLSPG
WT TACI 13-118-Fc based on the published telitacicept sequence (Fc fusion), sequence (chain): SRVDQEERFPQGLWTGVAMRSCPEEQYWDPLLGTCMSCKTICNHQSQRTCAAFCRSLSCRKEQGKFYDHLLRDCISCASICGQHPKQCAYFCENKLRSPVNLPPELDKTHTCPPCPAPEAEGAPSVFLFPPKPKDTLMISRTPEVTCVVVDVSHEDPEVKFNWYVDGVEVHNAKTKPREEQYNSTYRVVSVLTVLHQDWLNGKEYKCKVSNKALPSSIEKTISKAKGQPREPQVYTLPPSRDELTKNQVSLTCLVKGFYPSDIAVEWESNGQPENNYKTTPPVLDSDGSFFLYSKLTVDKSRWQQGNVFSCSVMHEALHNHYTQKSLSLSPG

In the case of “192 TACI CRD2-Fc (K77E, Y102D) (Fc fusion)”, the IC50, Jurkat/NF-kB/TACI reporter in experiment [1] turned out to be 0.891 nM; in [2], 2.18 nM. In addition, the IC50 relative to WT TACI (68-110)-Fc (Δ WT) amounted to 0.07 in [1] and 1.17 in experiment [2].
In the case of TACI 13-118-Fc (Fc fusion), the IC50 (read off the curve), human BAFF, NF-κB luciferase reporter, TACI/Jurkat/NF-κB cells in experiment [3] is 20 nM. Also, in experiment [4], the IC50, Jurkat/NF-kB/TACI reporter turned out to be 7810 nM; the IC50 relative to TACI 30-110 was 1.81; the IC50 relative to TACI 30-110-Fc was 2.37. In addition, in experiment [5], the IC50, Jurkat/NF-kB/TACI reporter is 7700 nM; the IC50 relative to TACI 30-110 came to 1.88; the IC50 relative to TACI 30-110-Fc is 1.33. In experiment [2], the IC50, Jurkat/NF-kB/TACI reporter amounted to 7.91 nM and the IC50 relative to WT TACI (68-110)-Fc (Δ WT) is 4.26.
In the case of “TACI 13-118, with K77E/F78Y/Y102D, Fc fusion”, the IC50, Jurkat/NF-kB/TACI reporter in experiment [4] was found to be 848 nM; in experiment [5], 2050 nM; in experiment [1], 13.2 nM; in [2] it was 1.99 nM. In addition, the IC50 relative to TACI 30-110 in experiment [4] came out at 0.2; in experiment [5], 0.46. The IC50 relative to WT TACI (68-110)-Fc (Δ WT) in [1] and in [2] was 1.07 in each case.
190 TACI CRD2-Fc (Y102D) (Fc fusion): in experiment [1], the IC50, Jurkat/NF-kB/TACI reporter came out at 11.6 nM and the IC50 relative to WT TACI (68-110)-Fc (Δ WT) worked out at 0.94. For the same substance, in experiment [2], the IC50, Jurkat/NF-kB/TACI reporter was 1.86 nM and the IC50 relative to WT TACI (68-110)-Fc (Δ WT) was found to be 1.
On to 27 TACI CRD2-Fc (Fc fusion), for which the IC50, Jurkat/NF-kB/TACI reporter in [4] came out at 262 nM; in experiment [5], 1390 nM; in [1] it was 11.8 nM; in experiment [2], 1.46 nM. Moreover, the IC50 relative to TACI 30-110-Fc amounted to 0.07 in experiment [4] and 0.24 in experiment [5]. Besides, the figures for the IC50 relative to WT TACI (68-110)-Fc (Δ WT) in experiment [1] and in [2] were 0.96 and 0.79, respectively.
Regarding “184 TACI CRD2-Fc (F78Y, R84Q) (Fc fusion)”, in experiment [1], the IC50, Jurkat/NF-kB/TACI reporter was found to be 2.62 nM and the IC50 relative to WT TACI (68-110)-Fc (Δ WT) turned out to be 0.21. Besides, in experiment [2], the IC50, Jurkat/NF-kB/TACI reporter is 2.26 nM and the IC50 relative to WT TACI (68-110)-Fc (Δ WT) was 1.22.
On to “TACI WT 13 (G4S)4 (84) TACI WT 13 GSG4S (74) Fc 73 (Fc fusion)”, for which the IC50, Jurkat/NF-kB/TACI reporter in experiment [4] worked out at 34.6 nM; in experiment [5], 3.29 nM; with BAFF 60-mer (human), 4.33 nM.
Turning to “WT TACI 13-118-Fc based on the published telitacicept sequence (Fc fusion)”, the IC50, TACI/Jurkat/NF-kB reporter in [6] was above 200 nM.
For the substance “186 TACI CRD2-Fc (F78Y, Y102D) (Fc fusion)”, in experiment [1], the IC50, Jurkat/NF-kB/TACI reporter turned out to be 8.49 nM and the IC50 relative to WT TACI (68-110)-Fc (Δ WT) came out at 0.69. Moreover, in experiment [2], the IC50, Jurkat/NF-kB/TACI reporter is 1.96 nM and the IC50 relative to WT TACI (68-110)-Fc (Δ WT) turned out to be 1.06.
As to “188 TACI CRD2-Fc (R84Q, Y102D) (Fc fusion)”, in experiment [1], the IC50, Jurkat/NF-kB/TACI reporter is 12.3 nM and the IC50 relative to WT TACI (68-110)-Fc (Δ WT) came out at 1. Moreover, in experiment [2], the IC50, Jurkat/NF-kB/TACI reporter is 1.86 nM and the IC50 relative to WT TACI (68-110)-Fc (Δ WT) worked out at 1.01.
32 TACI CRD2-Fc (K77E) (Fc fusion): the IC50, Jurkat/NF-kB/TACI reporter in experiment [1] worked out at 0.159 nM; in experiment [2], 1.54 nM. Also, the IC50 relative to WT TACI (68-110)-Fc (Δ WT) stood at 0.01 in experiment [1] and 0.83 in experiment [2].
In the case of TACI 30-110-Fc (Fc fusion), the IC50 (read off the curve), human BAFF, NF-κB luciferase reporter, TACI/Jurkat/NF-κB cells in [3] was found to be 20 nM. Moreover, in experiment [4], the IC50, Jurkat/NF-kB/TACI reporter amounted to 4320 nM; the IC50 relative to TACI 30-110 is 1; the IC50 relative to TACI 30-110-Fc was determined as 1. Besides, in [5], the IC50, Jurkat/NF-kB/TACI reporter worked out at 4490 nM; the IC50 relative to TACI 30-110 was found to be 1; the IC50 relative to TACI 30-110-Fc amounted to 1. Further, in the experiment with BAFF 60-mer (human), the IC50, TACI/Jurkat/NF-kB reporter is above 100 nM.
Turning to “189 TACI CRD2-Fc (A101D, Y102D) (Fc fusion)”, in experiment [1], the IC50, Jurkat/NF-kB/TACI reporter is 33.6 nM and the IC50 relative to WT TACI (68-110)-Fc (Δ WT) is 2.72. Moreover, in [2], the IC50, Jurkat/NF-kB/TACI reporter was found to be 1.95 nM and the IC50 relative to WT TACI (68-110)-Fc (Δ WT) was determined as 1.05.
Regarding “185 TACI CRD2-Fc (F78Y, A101D) (Fc fusion)”, in experiment [1], the IC50, Jurkat/NF-kB/TACI reporter stood at 2.02 nM and the IC50 relative to WT TACI (68-110)-Fc (Δ WT) turned out to be 0.16. In [2], the IC50, Jurkat/NF-kB/TACI reporter stood at 1.85 nM and the IC50 relative to WT TACI (68-110)-Fc (Δ WT) is 1.
On the same counts, the results for 177 TACI CRD2-Fc (Q75E) (Fc fusion) are 1.94 nM, 0.16, 1.46 nM and 0.79.
As to “187 TACI CRD2-Fc (R84Q, A101D) (Fc fusion)”, in [1], the IC50, Jurkat/NF-kB/TACI reporter came to 11.2 nM and the IC50 relative to WT TACI (68-110)-Fc (Δ WT) was found to be 0.91. Besides, in experiment [2], the IC50, Jurkat/NF-kB/TACI reporter stood at 2.35 nM and the IC50 relative to WT TACI (68-110)-Fc (Δ WT) came out at 1.27.
On the same counts, the results for 183 TACI CRD2-Fc (F78Y) (Fc fusion) are 0.176 nM, 0.01, 1.64 nM and 0.88.
“182 TACI CRD2-Fc (K77E, F78Y, R84Q) (Fc fusion)”: in [1], the IC50, Jurkat/NF-kB/TACI reporter stood at 10.1 nM and the IC50 relative to WT TACI (68-110)-Fc (Δ WT) came out at 0.82. For the same substance, in [2], the IC50, Jurkat/NF-kB/TACI reporter came to 2.21 nM and the IC50 relative to WT TACI (68-110)-Fc (Δ WT) came to 1.19.
On to “Atacicept (WT TACI-Fc with the atacicept sequence) (Fc fusion)”, for which the IC50, Jurkat/NF-kB/TACI reporter in experiment [6] stood at 7.72 nM; in experiment [4], 9.26 nM; in experiment [5], 8.29 nM; in [2], 7.74 nM. Also, the IC50, TACI/Jurkat/NF-kB reporter was above 200 nM in experiment [6]; above 200 nM in experiment [4]; 20.8 nM in [5]; 18 nM in experiment [7]; 9 nM in [8]. Further, the IC50 relative to WT TACI (68-110)-Fc (Δ WT) in experiment [2] was 4.17.
For the substance 30 TACI CRD2-Fc (R84Q) (Fc fusion), in experiment [1], the IC50, Jurkat/NF-kB/TACI reporter turned out to be 0.566 nM and the IC50 relative to WT TACI (68-110)-Fc (Δ WT) worked out at 0.05. Also, in [2], the IC50, Jurkat/NF-kB/TACI reporter was 5.49 nM and the IC50 relative to WT TACI (68-110)-Fc (Δ WT) is 2.96. The IC50 (read off the curve), human BAFF, NF-κB luciferase reporter, Jurkat/TACI/NF-κB cells in experiment [9] is 1 nM.
For BAFF-R ECD (receptor), in experiment [2], the IC50, Jurkat/NF-kB/TACI reporter worked out at 53.2 nM and the IC50 relative to WT TACI (68-110)-Fc (Δ WT) was 28.7.
As for 29 TACI CRD2-Fc (Fc fusion), the IC50, Jurkat/NF-kB/TACI reporter in [4] worked out at 339 nM; in [1], 2.91 nM; in experiment [2], 1.18 nM. Besides, the IC50 relative to TACI 30-110-Fc in experiment [4] was 0.09; in [5], 0.23. Besides, the IC50 relative to WT TACI (68-110)-Fc (Δ WT) was determined as 0.24 in experiment [1] and 0.64 in experiment [2].
In the case of “TACI WT 13 GSG4S (74) Fc 73 (G4S)4 (84) TACI WT 13 (Fc fusion)”, the figures for the IC50, Jurkat/NF-kB/TACI reporter (in experiment [4]; in [5]; with BAFF 60-mer (human)) were 11.9 nM, 1.04 nM and 2.58 nM, respectively.
Regarding “191 TACI CRD2-Fc (K77E, F78Y) (Fc fusion)”, in [1], the IC50, Jurkat/NF-kB/TACI reporter worked out at 10.1 nM and the IC50 relative to WT TACI (68-110)-Fc (Δ WT) came to 0.82. In [2], the IC50, Jurkat/NF-kB/TACI reporter is 1.97 nM and the IC50 relative to WT TACI (68-110)-Fc (Δ WT) was 1.06.
The corresponding values for “180 TACI CRD2-Fc (Q75E, A101D) (Fc fusion)” are 20 nM, 1.62, 2.36 nM and 1.27.
Turning to “24 TACI CRD2-Fc (K77E, R84Q) (Fc fusion)”, in [1], the IC50, Jurkat/NF-kB/TACI reporter came out at 4.26 nM and the IC50 relative to WT TACI (68-110)-Fc (Δ WT) is 0.35. Also, in experiment [2], the IC50, Jurkat/NF-kB/TACI reporter turned out to be 2.26 nM and the IC50 relative to WT TACI (68-110)-Fc (Δ WT) was 1.22.
The corresponding values for “181 TACI CRD2-Fc (Q75E, Y102D) (Fc fusion)” are 11.1 nM, 0.9, 2.15 nM and 1.16.
The corresponding values for “179 TACI CRD2-Fc (Q75E, F78Y) (Fc fusion)” are 13.4 nM, 1.09, 1.79 nM and 0.97.
Turning to 23 TACI CRD2-Fc (A101D) (Fc fusion), the IC50, Jurkat/NF-kB/TACI reporter came out at 8.38 nM in experiment [1] and 1.83 nM in [2]. Further, the IC50 relative to WT TACI (68-110)-Fc (Δ WT) worked out at 0.68 in experiment [1] and 0.99 in experiment [2].
On to “178 TACI CRD2-Fc (Q75E, K77E) (Fc fusion)”, for which the IC50, Jurkat/NF-kB/TACI reporter was 10.7 nM in experiment [1] and 1.89 nM in experiment [2]. In addition, the IC50 relative to WT TACI (68-110)-Fc (Δ WT) in [1] was 0.87; in [2], 1.02.
Regarding “25 TACI CRD2-Fc (K77E, A101D) (Fc fusion)”, in experiment [1], the IC50, Jurkat/NF-kB/TACI reporter was found to be 2.04 nM and the IC50 relative to WT TACI (68-110)-Fc (Δ WT) was 0.17. Also, in experiment [2], the IC50, Jurkat/NF-kB/TACI reporter stood at 1.96 nM and the IC50 relative to WT TACI (68-110)-Fc (Δ WT) came out at 1.06.

Source of the values: patent US20260250352A1.
